From PMC6927192, “Comparative phosphorylation map of Dishevelled 3 links phospho-signatures to biological outputs” (Cell Communication and Signaling : CCS, 2019) come the findings set out here.

Square brackets hold non-standard residues; d marks the D form. Ends that are not written are not given here. pS = N[C@@H](COP(=O)(O)O)C(=O)O

The target of this test is T1, Human DVL2 PDZ domain (aa 265–361) (human, UniProt O14641 265-361).
T1 construct: Dishevelled 2 (DVL2), human, PDZ domain, residues 265-361; 15N-labelled for the NMR titration; The pET construct has a TEV cleavage site after the tags; also called wt PDZ; wildtype PDZ; source: E. coli BL21-DE3(RIL), purified
T1 sequence (looked up): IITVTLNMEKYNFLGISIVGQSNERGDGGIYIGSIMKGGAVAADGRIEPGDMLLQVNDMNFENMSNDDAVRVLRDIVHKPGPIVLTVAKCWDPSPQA
Kind of test: NMR titration; series of 1H-15N HSQC spectra, 100 μM 15N-labeled PDZ (wild type or phosphomimicking mutant) with increasing amounts of DVL_C peptide (stock 800 μM); proteins stored in 20 mM Hepes (pH 6.8), 50 mM KCl; 700 MHz; qualitative analysis. The conditions noted are these: both partners purified.

B1: DVL3_C peptide 698–716 with phosphorylated S700 (peptide, UniProt Q92997 698-716, looked up)
peptide: RQ[pS]FRMAMGNPSEFFVDVM
notes: Dishevelled 3 (DVL3), human, C-terminal residues 698-716; also called DVL3 C-terminal peptide; source: bought: KareBay Biochem, Inc. (New Jersey, USA)
As to B1, the binding result is given as “binds”.
